Laboratory results reported in patent US12668821B2, “Enzymatic production of glucaric acid from glucuronic acid” (THE GOVERNING COUNCIL OF THE UNIVERSITY OF TORONTO, priority 2019, dated 2026).

What was measured:
[1] = Activity screening of GOOX variants and glucose oxidase on GlcA; assay type: biochemical; details: for nmol oxidized GlcA Mean: enzyme 16 nM, 37° C., 10 mM GlcA (FIG. 11 legend; b102 says 100 mM), 100 mM Tris pH 8.0 (GOOX variants) or 50 mM sodium acetate pH 5.0 (GO); for activity with GlcA as substrate (in words): screening, compared with wtGOOX
Method: (§1) FIG. 11: Activity screening of GOOX variants and glucose oxidase (GO) on GlcA and MeGlcA substrates. The enzymes (16 nM) were assayed at 37° C. with 10 mM GlcA and 1 mM MeGlcA in 100 mM Tris buffer pH 8.0 (for GOOX variants) or 50 mM sodium acetate pH 5.0 (for GO). The dotted line indicates the activity of GOOX-VN for MeGlcA for ease of comparison. “CtCBM22A-wtGOOX” and “CtCBM22A-Y300A” represent fusion proteins where the C terminus of the xylan-binding protein CtCBM22A (described in Vuong and Master, 2014) is fused to the N terminus GOOX.
(§2) The specific activity of GOOX-Y300A (16 nM) on MeGlcA and GlcA (1 mM) was measured in 50 mM Tris buffer pH 8.0 at 40° C. The amount of methyl glucaric acid was determined by measuring the release of H2O2 using a previously published colorimetric assay (Lin et al., 1991). The kinetics of GOOX-Y300A on these acidic sugars were measured at the same condition, but using up to 60 mM MeGlcA and GlcA and in 0.3 M Tris buffer pH 8.0.

[2] = Activity screening of GOOX variants and glucose oxidase on MeGlcA; assay type: biochemical; details: for nmol oxidized MeGlcA Mean: enzyme 16 nM, 37° C., 1 mM MeGlcA (FIG. 11 legend; b102 says 10 mM), 100 mM Tris pH 8.0 (GOOX variants) or 50 mM sodium acetate pH 5.0 (GO)
Method: as §1, §2

nmol oxidized GlcA Mean [1] | activity with GlcA as substrate (in words) [1] | nmol oxidized MeGlcA Mean [2] | activity with MeGlcA as substrate (in words) ([2]; screening, compared with wtGOOX) | Molecule
-0.02652 nmol | improved activity over wtGOOX | 1.4023 nmol | improved activity over wtGOOX | N388S: GOOX variant with N388S relative to SEQ ID NO: 1 (protein, listed as Sarocladium strictum, (1)..(206) FAD-binding domain; (207)..(474) substrate-binding domain) NSINACLAAADVEFHEEDSEGWEMDGTAFNLRVDYDPVAIAIPRSTEDIAAAVQCGLDAGVQISAKGGGHSYGSYGFGGEDGHLMLELDRMYRVSVDDDNVATIQGGARLGYTALELLDQGNRALTHGTCPAVGIGGHVLGGGYGFATHTHGLTLDWLVGATVVLADASIVHVSKTENADLFWALRGGGGGFAIVSEFEFNTFEAPEIITTYQVTTTWNRKQHVAGLKALQDWAENTMPRELSMRLEINANALNWEGNYFGNAKDLKKVLQPIMKKAGGKSTISKLVETDWYGQINTYLYGADLNITYNYDVHEYFYANSLTAPRLSDEAISAFVDYKFDNSSVRPGRGWWIQWDFHGGKNSALASHSNDETAYAHRDQLWLWQFYDSIYDYENNTSPYPESGFEFMQGFVATIEDTLPEDRKGKYFNYADTTLDKEEAQKLYWRGNLEKLQAIKAKYDPEDVFGNVVSVEPIA
0.05395 nmol | improved activity over wtGOOX | 0.6279 nmol |  | Y72F: GOOX variant with Y72F relative to SEQ ID NO: 1 (protein, listed as Sarocladium strictum, (1)..(206) FAD-binding domain; (207)..(474) substrate-binding domain) NSINACLAAADVEFHEEDSEGWEMDGTAFNLRVDYDPVAIAIPRSTEDIAAAVQCGLDAGVQISAKGGGHSFGSYGFGGEDGHLMLELDRMYRVSVDDDNVATIQGGARLGYTALELLDQGNRALTHGTCPAVGIGGHVLGGGYGFATHTHGLTLDWLVGATVVLADASIVHVSKTENADLFWALRGGGGGFAIVSEFEFNTFEAPEIITTYQVTTTWNRKQHVAGLKALQDWAENTMPRELSMRLEINANALNWEGNYFGNAKDLKKVLQPIMKKAGGKSTISKLVETDWYGQINTYLYGADLNITYNYDVHEYFYANSLTAPRLSDEAISAFVDYKFDNSSVRPGRGWWIQWDFHGGKNSALASHSNDETAYAHRDQLWLWQFYDNIYDYENNTSPYPESGFEFMQGFVATIEDTLPEDRKGKYFNYADTTLDKEEAQKLYWRGNLEKLQAIKAKYDPEDVFGNVVSVEPIA
0.05212 nmol | improved activity over wtGOOX | 0.594 nmol |  | Q353A: GOOX variant with Q353A relative to SEQ ID NO: 1 (protein, listed as Sarocladium strictum, (1)..(206) FAD-binding domain; (207)..(474) substrate-binding domain) NSINACLAAADVEFHEEDSEGWEMDGTAFNLRVDYDPVAIAIPRSTEDIAAAVQCGLDAGVQISAKGGGHSYGSYGFGGEDGHLMLELDRMYRVSVDDDNVATIQGGARLGYTALELLDQGNRALTHGTCPAVGIGGHVLGGGYGFATHTHGLTLDWLVGATVVLADASIVHVSKTENADLFWALRGGGGGFAIVSEFEFNTFEAPEIITTYQVTTTWNRKQHVAGLKALQDWAENTMPRELSMRLEINANALNWEGNYFGNAKDLKKVLQPIMKKAGGKSTISKLVETDWYGQINTYLYGADLNITYNYDVHEYFYANSLTAPRLSDEAISAFVDYKFDNSSVRPGRGWWIAWDFHGGKNSALASHSNDETAYAHRDQLWLWQFYDNIYDYENNTSPYPESGFEFMQGFVATIEDTLPEDRKGKYFNYADTTLDKEEAQKLYWRGNLEKLQAIKAKYDPEDVFGNVVSVEPIA
0.05669 nmol | improved activity over wtGOOX | 0.724 nmol |  | E247A: GOOX variant with E247A relative to SEQ ID NO: 1 (protein, listed as Sarocladium strictum, (1)..(206) FAD-binding domain; (207)..(474) substrate-binding domain) NSINACLAAADVEFHEEDSEGWEMDGTAFNLRVDYDPVAIAIPRSTEDIAAAVQCGLDAGVQISAKGGGHSYGSYGFGGEDGHLMLELDRMYRVSVDDDNVATIQGGARLGYTALELLDQGNRALTHGTCPAVGIGGHVLGGGYGFATHTHGLTLDWLVGATVVLADASIVHVSKTENADLFWALRGGGGGFAIVSEFEFNTFEAPEIITTYQVTTTWNRKQHVAGLKALQDWAENTMPRELSMRLAINANALNWEGNYFGNAKDLKKVLQPIMKKAGGKSTISKLVETDWYGQINTYLYGADLNITYNYDVHEYFYANSLTAPRLSDEAISAFVDYKFDNSSVRPGRGWWIQWDFHGGKNSALASHSNDETAYAHRDQLWLWQFYDNIYDYENNTSPYPESGFEFMQGFVATIEDTLPEDRKGKYFNYADTTLDKEEAQKLYWRGNLEKLQAIKAKYDPEDVFGNVVSVEPIA
0.09327 nmol | improved activity over wtGOOX | 0.4522 nmol |  | Q353N: GOOX variant with Q353N relative to SEQ ID NO: 1 (protein, listed as Sarocladium strictum, (1)..(206) FAD-binding domain; (207)..(474) substrate-binding domain) NSINACLAAADVEFHEEDSEGWEMDGTAFNLRVDYDPVAIAIPRSTEDIAAAVQCGLDAGVQISAKGGGHSYGSYGFGGEDGHLMLELDRMYRVSVDDDNVATIQGGARLGYTALELLDQGNRALTHGTCPAVGIGGHVLGGGYGFATHTHGLTLDWLVGATVVLADASIVHVSKTENADLFWALRGGGGGFAIVSEFEFNTFEAPEIITTYQVTTTWNRKQHVAGLKALQDWAENTMPRELSMRLEINANALNWEGNYFGNAKDLKKVLQPIMKKAGGKSTISKLVETDWYGQINTYLYGADLNITYNYDVHEYFYANSLTAPRLSDEAISAFVDYKFDNSSVRPGRGWWINWDFHGGKNSALASHSNDETAYAHRDQLWLWQFYDNIYDYENNTSPYPESGFEFMQGFVATIEDTLPEDRKGKYFNYADTTLDKEEAQKLYWRGNLEKLQAIKAKYDPEDVFGNVVSVEPIA
0.06492 nmol | improved activity over wtGOOX | 0.7166 nmol |  | W351A: GOOX variant with W351A relative to SEQ ID NO: 1 (protein, listed as Sarocladium strictum, (1)..(206) FAD-binding domain; (207)..(474) substrate-binding domain) NSINACLAAADVEFHEEDSEGWEMDGTAFNLRVDYDPVAIAIPRSTEDIAAAVQCGLDAGVQISAKGGGHSYGSYGFGGEDGHLMLELDRMYRVSVDDDNVATIQGGARLGYTALELLDQGNRALTHGTCPAVGIGGHVLGGGYGFATHTHGLTLDWLVGATVVLADASIVHVSKTENADLFWALRGGGGGFAIVSEFEFNTFEAPEIITTYQVTTTWNRKQHVAGLKALQDWAENTMPRELSMRLEINANALNWEGNYFGNAKDLKKVLQPIMKKAGGKSTISKLVETDWYGQINTYLYGADLNITYNYDVHEYFYANSLTAPRLSDEAISAFVDYKFDNSSVRPGRGWAIQWDFHGGKNSALASHSNDETAYAHRDQLWLWQFYDNIYDYENNTSPYPESGFEFMQGFVATIEDTLPEDRKGKYFNYADTTLDKEEAQKLYWRGNLEKLQAIKAKYDPEDVFGNVVSVEPIA
